Measured values: paper PMC7047619 (Arteriosclerosis, thrombosis, and vascular biology, 2020)

B1: murine mAb 7E3 (antibody, V domains shown)
VH: EVQLQQSGTVLARPGASVKMSCEASGYTFTNYWMHWVKQRPGQGLEWIGAIYPGNSDTSYIQKFKGKAKLTAVTSTTSVYMELSSLTNEDSAVYYCTLYDGYYVFAYWGQGTLVTVSA
VL: EIVLTQSPVTLSVTPGDSVSLSCRASRDISNNLHWFQQTSHESPRLLIKYASQSMSGIPSRFSGSGSGTDFTLSINSVETEDFGMYFCQQTNSWPYTFGGGTKLEIK
B2: abciximab (Fab, V domains shown)
VH: B1 VH
VL: B1 VL

Target: wild-type αIIbβ3 on HEK 293 cells (Homo sapiens, UniProt P08514;P05106)
Assay: flow cytometry on cells

| Binder | binding result |
| --- | --- |
| B1 | binds |
| B2 | binds |
